Measured values from patent publication US8357523B2, “Beta-glucosidase variant enzymes and related polynucleotides” (Codexis, Inc., priority 2009, dated 2013).

Experiment: High throughput cellobiose assay: fold improvement in cellobiase activity of CelA variants over a control enzyme (Tables 2A-2D, 3, 5, 6, 7)
Format: biochemical
Conditions: 3.3 g/l cellobiose, 55° C. and pH 6.0

B1: 192 (protein)
chain: STAIAQEGAAPAAILHPEKWPRPATQRLIDPAVEKRVDALLKQLSVEEKVGQVIQGDIGTITPEDLRKYPLGSILAGGNSGPNGDDRAPPKEWLDLADAFYRVSLEKRPGHTPIPVLFGIDAVHGHGNIGSATIFPHNIALGATRDPELLRRIGEVTAVEMAATGIDWTFAPALSVVRDDRWGRTYEGFSEDPEIVAAYSAAIVEGVQGKFGSKDFMAPGRIVASAKHFLADGGTDQGRDQGDARISEDELIRIHNAGYPPAIDAGVLTVMASASSWQGIKHHGHKQLLTDVLKGQMGFNGFIVGDWNAHDQVPGCTKFNCPTSLIAGLDMYMAADSWKQLYENTLAQVKDGTIPMARLDDAVRRILRVKVLAGLFEKPAPKDRPGLPGLETLGSPEHRAVGREAVRKSLVLLKNDKGTLPLSPKARVLVAGDGADNIGKQSGGWTISWQGTGNRNDEFPGATSILGGIRDAVADAGGSVEFDVAGQYKTKPDVAIVVFGEEPYAEFQGDVETLEYQPDQKQDLALLKKLKDQGIPVVAVFLSGRPMWVNPELNASDAFVAAWLPGTEGGGVADVLFTDKAGKVQHDFAGKLSYSWPRTAAQTTVNRGDADYNPLFAYGYGLTYKDKSKVGTLPEESGVPAEARQNAGIYFRAGALRLPGRFL
Fold improvement over Control Variant No. 5 from Table 2A: ++ (++ = 1.1 to 6 fold improvement over control Variant No. 2)

B2: 196 (protein)
chain: STAIAQEGAAPAAILHPEKWPRPATQRLIDPAVEKRVDALLKQLSVEEKVGQVIQGDIGTITPEDLRKYPLGSILAGGDSGPNGDDRAPPKEWLDLADAFYRVSLEKRPGHTPIPVLFGIDAVHGHGNIGSATIFPHNIALGMTRDPELLRRIGEVTAEEMAATGIDWTFAPALSVVRDDRWGRTYEGFSEDPEIVASYSAAIVEGVQGKFGSKDFMAPGRIVASAKHFLADGGTDQGRDQGDARISEDELIRIHNAGYPPAIDAGVLTVMASFSSWQGIKHHGHKQLLTDVLKGQMGFNGFIVGDWNAHDQVPGCTKFNCPTSLIAGLDMYMAADSWKQLYENTLAQVKDGTIPMARLDDAVRRILRVKVLAGLFEKPAPKDRPGLPGLETLGSPEHRAVGREAVRKSLVLLKNDKGTLPLSPKARVLVAGDGADNIGKQSGGWTISWQGTGNRNDEFPGATSILGGIRDAVADAGGSVEFDVAGQYKTKPDVAIVVFGEEPYAEFQGDVETLEYQPDQKQDLALLKKLKDQGIPVVAVFLSGRPMWVNPELNASDAFVAAWLPGTEGPGVADVLFTDKAGKVQHDFAGKLSYSWPRTAAQTPVNRGDADYNPLFAYGYGLTYKDKSKVGTLPEESGVPAEARQNAGIYFRAGALRLPGRFL
Fold improvement over Control Variant No. 5 from Table 2A: ++ (++ = 1.1 to 6 fold improvement over control Variant No. 2)

B3: 197 (protein)
chain: STAIAQEGAAPAAILHPEKWPRPATQRLIDPAVEKRVDALLKQLSVEEKVGQVIQGDIGTITPEDLRKYPLGSILAGGDSGPNGDDRAPPKEWLDLADAFYRVSLEKRPGHTPIPVLFGIDAVHGHGNIGSATIFPHNIALGMTRDPELLRRIGEVTAEEMAATGIDWTFAPALSVVRDDRWGRTYEGFSEDPEIVASYSAAIVEGVQGKFGSKDFMAPGRIVASAKHFLADGGTDQGRDQGDARISEDELIRIHNAGYPPAIDAGVLTVMASFSSWQGIKHHGHKQLLTDVLKGQMGFNGFIVGDWNAHDQVPGCTKFNCPTSLIAGLDMYMAADSWKQLYENTLAQVKDGTIPMARLDDAVRRILRVKVLAGLFEKPAPKDRPGLPGLETLGSPEHRAVGREAVRKSLVLLKNDKGTLPLSPKARVLVAGDGADNIGKQSGGWTISWQGTGNRNDEFPGATSILGGIRDAVADAGGSVEFDVPGQYKTKPDVAIVVFGEEPYAEFQGDVETLEYQPDQKQDLALLKKLKDQGIPVVAVFLSGRPMWVNPELNASDAFVAAWLPGTEGGGVADVLFTDKAGKVQHDFAGKLSYSWPRTAAQTPVNRGDADYNPLFAYGYGLTYKDKSKVGTLPEESGVPAEARQNAGIYFRAGALRLPGRFL
Fold improvement over Control Variant No. 5 from Table 2A: ++ (++ = 1.1 to 6 fold improvement over control Variant No. 2)

B4: 194 (protein)
chain: STAIAQEGAAPAAILHPEKWPRPATQRLIDPAVEKRVDALLKQLSVEEKVGQVIQGDIGTITPEDLRKYPLGSILAGGDSGPNGDDRAPPKEWLDLADAFYRVSLEKRPGHTPIPVLFGIDAVHGHGNIGSATIFPHNIALGMTRDPELLRRIGEVTAEEMAATGIDWTFAPALSVVRDDRWGRTYEGFSEDPEIVASYSAAIVEGVQGKFGSKDFMAPGRIVASAKHFLADGGTDQGRDQGDARISEDELIRIHNPGYPPAIDAGVLTVMASFSSWQGIKHHGHKQLLTDVLKGQMGFNGFIVGDWNAHDQVPGCTKFNCPTSLIAGLDMYMAADSWKQLYENTLAQVKDGTIPMARLDDAVRRILRVKVLAGLFEKPAPKDRPGLPGLETLGSPEHRAVGREAVRKSLVLLKNDKGTLPLSPKARVLVAGDGADNIGKQSGGWTISWQGTGNRNDEFPGATSILGGIRDAVADAGGSVEFDVPGQYKTKPDVAIVVFGEEPYAEFQGDVETLEYQPDQKQDLALLKKLKDQGIPVVAVFLSGRPMWVNPELNASDAFVAAWLPGTEGGGVADVLFTDKAGKVQHDFAGKLSYSWPRTAAQTTVNRGDADYNPLFAYGYGLTYKDKSKVGTLPEESGVPAEARQNAGIYFRAGALRLPGRFL
Fold improvement over Control Variant No. 5 from Table 2A: ++ (++ = 1.1 to 6 fold improvement over control Variant No. 2)

B5: 198 (protein)
chain: STAIAQEGAAPAAILHPEKWPRPATQRLIDPAVEKRVDALLKQLSVEEKVGQVIQGDIGTITPEDLRKYPLGSILAGGDSGPNGDDRAPPKEWLDLADAFYRVSLEKRPGHTPIPVLFGIDAVHGHGNIGSATIFPHNIALGMTRDPELLRRIGEVTAEEMAATGIDWTFAPALSVVRDDRWGRTYEGFSEDPEIVASYSAAIVEGVQGKFGPKDFMAPGRIVASAKHFLADGGTDQGRDQGDARISEDELIRIHNAGYPPAIDAGVLTVMASFSSWQGIKHHGHKQLLTDVLKGQMGFNGFIVGDWNAHDQVPGCTKFNCPTSLIAGLDMYMAADSWKQLYENTLAQVKDGTIPMARLDDAVRRILRVKVLAGLFEKPAPKDRPGLPGLETLGSPEHRAVGREAVRKSLVLLKNDKGTLPLSPKARVLVAGDGADNIGKQSGGWTISWQGTGNRNDEFPGATSILGGIRDAVADAGGSVEFDVPGQYKTKPDVAIVVFGEEPYAEFQGDVETLEYQPDQKQDLALLKKLKDQGIPVVAVFLSGRPMWVNPELNASDAFVAAWLPGTEGGGVADVLFTDKAGKVQHDFAGKLSYSWPRTAAQTTVNRGDADYNPLFAYGYGLTYKDKSKVGTLPEESGVPAEARQNAGIYFRAGALRLPGRFL
Fold improvement over Control Variant No. 5 from Table 2A: ++ (++ = 1.1 to 6 fold improvement over control Variant No. 2)

B6: 199 (protein)
chain: STAIAQEGAAPAAILHPEKWPRPATQRLIDPAVEKRVDALLKQLSVEEKVGQVIQGDIGTITPEDLRKYPLGSILAGGDSGPNGDDRAPPKEWLDLADAFYRVSLEKRPGHTPIPVLFGIDAVHGHGNIGSATIFPHNIALGMTRDPELLRRIGEVTAEEMAATGIDWTFAPALSVVRDDRWGRTYEGFSEDPEIVASYSAAIVEGVQGKFGPKDFMAPVRIVASAKHFLADGGTDQGRDQGDARISEDELIRIHNAGYPPAIDAGVLTVMASFSSWQGIKHHGHKQLLTDVLKGQMGFNGFIVGDWNAHDQVPGCTKFNCPTSLIAGLDMYMAADSWKQLYENTLAQVKDGTIPMARLDDAVRRILRVKVLAGLFEKPAPKDRPGLPGLETLGSPEHRAVGREAVRKSLVLLKNDKGTLPLSPKARVLVAGDGADNIGKQSGGWTISWQGTGNRNDEFPGATSILGGIRDAVADAGGSVEFDVAGQYKTKPDVAIVVFGEEPYAEFQGDVETLEYQPDQKQDLALLKKLKDQGIPVVAVFLSGRPMWVNPELNASDAFVAAWLPGTEGGGVADVLFTDKAGKVQHDFAGKLSYSWPRTAAQTTVNRGDADYNPLFAYGYGLTYKDKSKVGTLPEESGVPAEARQNAGIYFRAGALRLPGRFL
Fold improvement over Control Variant No. 5 from Table 2A: ++ (++ = 1.1 to 6 fold improvement over control Variant No. 2)

B7: 193 (protein)
chain: STAIAQEGAAPAAILHPEKWPRPATQRLIDPAVEKRVDALLKQLSVEEKVGQVIQGDIGTITPEDLRKYPLGSILAGGNSGPNGDDRAPPKEWLDLADAFYRVSLEKRPGHTPIPVLFGIDAVHGHGNIGSATIFPHNIALGATRDPELLRRIGEVTAVEMAATGIDWTFAPALSVVRDDRWGRTYEGFSEDPEIVAAYSAAIVEGVQGKFGSKDFMAPGRIVASAKHFLADGGTDQGRDQGDARISEDELIRIHNAGYPPAIDAGVLTVMASFSSWQGIKHHGHKQLLTDVLKGQMGFNGFIVGDWNAHDQVPGCTKFNCPTSLSAGLDMYMAADSWKQLYENTLAQVKDGTIPMARLDDAVRRILRVKVLAGLFEKPAPKDRPGLPGLETLGSPEHRAVGREAVRKSLVLLKNDKGTLPLSPKARVLVAGDGADNIGKQSGGWTISWQGTGNRNDEFPGATSILGGIRDAVADAGGSVEFDVAGQYKTKPDVAIVVFGEEPYAEFQGDVETLEYQPDQKQDLALLKKLKDQGIPVVAVFLSGRPMWVNPELNASDAFVAAWLPGTEGGGVADVLFTDKAGKVQHDFAGKLSYSWPRTAAQTTVNRGDADYNPLFAYGYGLTYKDKSKVGTLPEESGVPAEARQNAGIYFRAGALRLPGRFL
Fold improvement over Control Variant No. 5 from Table 2A: ++ (++ = 1.1 to 6 fold improvement over control Variant No. 2)

B8: 82 (protein)
chain: STAIAQEGAAPAAILHPEKWPRPATQRLIDPAVEKRVDALLKQLSVEEKVGQVIQGDIGTITPEDLRKYPLGSILAGGNSGPNGDDRAPPKEWLDLADAFYRVSLEKRPGHTPIPVLFGIDAVHGHGKIGSATIFPHNIALGATRSPELLRRIGEVTAVEMAATGIDWTFAPALSVVRDDRWGRTYEGFSEDPEIVAAYSAAIVEGVQGKFGSKDFMAPGRAVACAKHFLADGGTDQGRDQGDARISEDELIRIHNAGYPPAIDAGVLTVMASFSSWQGIKHHGHKQLLTDVLKGQMGFNGFIVGDWNAHDQVPGCTKFNCPTSLIAGLDMYMAADSWKQLYENTLAQVKDGTIPMARLDDAVRRILRVKVLAGLFEKPAPKDRPGLPGLETLGSPEHRAVGREAVRKSLVLLKNDKGTLPLSPKARVLVAGDGADNIGKQSGGWTISWQGTGNRNDEFPGATSILGGIRDAVADAGGSVEFDVAGQYKTKPDVAIVVFGEEPYAEFQGDVETLEYQPDQKQDLALLKKLKDQGIPVVAVFLSGRPMWVNPELNASDAFVAAWLPGTEGGGVADVLFTDKAGKVQHDFAGKLSYSWPRTAAQTTVNRGDADYNPLFAYGYGLTYKDKSKVGTLPEESGVPAEARQNAGIYFRAGALRLPGRFL
Fold improvement over Control Variant No. 5 from Table 2A: +++ (+++ = 6 to 13 fold improvement over control Variant No. 2)
